According to the supplement of paper PMC12042874:
± gives the uncertainty stated by the source.

Assay: amyloid nucleation score (Sup35N fusion, yeast selection) (log enrichment); library NNK3; higher = more nucleation; inactive = no reads after selection
Method in brief: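 Growth for 7 days at 30°C on medium lacking adenine and uracil followed a 24-hour induction with 100 μM copper sulfate of psi-negative yeast expressing peptides of 20 random codons fused to Sup35N. Input and output plasmid inserts were sequenced with Illumina, and sequences with under 100 input reads were excluded. Nucleation score is the DiMSum log enrichment of output over input reads, centred on the mode score of non-aggregating sequences.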

GMRRFHNVRINVVSRWWFLE
amyloid nucleation score: 0.545 ± 0.28

RRWTTEVKQVHDYCG
amyloid nucleation score: inactive

VRGTGVVDRLGLGRWDRPEG
amyloid nucleation score: inactive

LDKEFAYIYSYC
amyloid nucleation score: inactive

IDRGNSNRPCPDFTDCFYGR
amyloid nucleation score: inactive

NAENFYV
amyloid nucleation score: inactive

CLVHEVPWRQMGSDLNKAAS
amyloid nucleation score: inactive

DLGYVLLMTHSRIMMCLHHY
amyloid nucleation score: inactive

IYSVVGCWKPSSVSDMAGLL
amyloid nucleation score: inactive

TESCVDSMVAFHNLPYLFRL
amyloid nucleation score: inactive

DEPAFQDFVLYTSSSSCWRY
amyloid nucleation score: inactive

LNSYSLNWRRCMGVQHSLYP
amyloid nucleation score: inactive

YMCGSGCF
amyloid nucleation score: inactive

KGHDAHVAVRVFTGGGLV
amyloid nucleation score: inactive

TRCTGSYNNYG
amyloid nucleation score: inactive

KICSIVPLYIRGGHSLGSVV
amyloid nucleation score: inactive

AEIVCICV
amyloid nucleation score: 1.11 ± 0.17

GLLLVRM
amyloid nucleation score: inactive

RLSRSRKRYFFGFR
amyloid nucleation score: inactive

LYVYTMR
amyloid nucleation score: inactive

MPIRCSTSLHWTTTMWMTVW
amyloid nucleation score: inactive

LTFISLSLGPDSRFSMTKYY
amyloid nucleation score: inactive

GTQCWLILCADNLNVLGIGL
amyloid nucleation score: 2.58 ± 0.065

YYLSLHR
amyloid nucleation score: inactive

VVWLSNSEWLRYLKDG
amyloid nucleation score: inactive

SSTYSGCWLVLSIKRFVLIE
amyloid nucleation score: inactive

CTFDSSSNYADSAKLIG
amyloid nucleation score: inactive

DIWFGSSKKSVMRV
amyloid nucleation score: inactive

SLTEQNL
amyloid nucleation score: inactive

LPFCLN
amyloid nucleation score: inactive

QYSHPQRIIFSF
amyloid nucleation score: -0.249 ± 0.43

RVAFSMESTPWSMFTSRTAE
amyloid nucleation score: inactive

RFSWWRW
amyloid nucleation score: 1.24 ± 0.14

DGNLWMKSVCCWTKVFIELL
amyloid nucleation score: 1.37 ± 0.12

VFPFIRNKV
amyloid nucleation score: inactive

YAPFWS
amyloid nucleation score: inactive

SLWIYTMSYCLSWNYDCFG
amyloid nucleation score: 0.669 ± 0.17

PTNFD
amyloid nucleation score: inactive

STYVCDGIDG
amyloid nucleation score: inactive

LVVIDTIIHCLFKTAQCAWF
amyloid nucleation score: inactive

SLFSEMSVYMQDYFWVT
amyloid nucleation score: inactive

DYTPGGCRPTTNCLS
amyloid nucleation score: inactive

TWDMSLT
amyloid nucleation score: inactive

LDVSLVVVMPIGLRTEWMSG
amyloid nucleation score: inactive

NRGSYVFMNRSEPVCSWISK
amyloid nucleation score: 1.09 ± 0.1

NLVSQK
amyloid nucleation score: inactive

RLHRLKDFTRNGCEYSSHLS
amyloid nucleation score: inactive

CSEVFTSNWAYETASNCKRV
amyloid nucleation score: 1.08 ± 0.12

PSCMSDCISIIYS
amyloid nucleation score: inactive

VVNILW
amyloid nucleation score: 1.82 ± 0.1

GNVILCFMLNYSMISGNDM
amyloid nucleation score: 0.956 ± 0.17

WSLNWLMTFGLIYRQFSHLY
amyloid nucleation score: inactive

TVVLSWPMYAECKFSCICMT
amyloid nucleation score: 1.38 ± 0.1

ANIGKIVKEHRQQSIQHCID
amyloid nucleation score: inactive

VIYISCFTVLLVFLVNTPLR
amyloid nucleation score: 1.2 ± 0.11

TIGFIGWWGVFYDTDWLRI
amyloid nucleation score: -0.566 ± 1.4

GNGVTPWPAEENSSRSPMPY
amyloid nucleation score: inactive

DYIEGLECVFRDPARIFLWG
amyloid nucleation score: -0.226 ± 1.1

NAEVALDHSSDLDS
amyloid nucleation score: inactive

ILVYLASLVTNFNYVHIPLG
amyloid nucleation score: 0.969 ± 0.18

YFNLPISW
amyloid nucleation score: -0.316 ± 0.7

ERLSMLVPYISDRYWLSDVN
amyloid nucleation score: inactive

SSDQRASPGWGFLFHKCAQV
amyloid nucleation score: inactive

SREDCGGI
amyloid nucleation score: inactive

MSCRARRTNLF
amyloid nucleation score: inactive

ESYINLDIHNYIKTIILSLA
amyloid nucleation score: inactive

FDVELALWC
amyloid nucleation score: inactive

GSGRNLSVLVYRLWVDGPTG
amyloid nucleation score: inactive

TMLRFIYSYDAFRR
amyloid nucleation score: 0.931 ± 0.22

CSASAYDSVIIDRIIYLIRG
amyloid nucleation score: inactive

TGMVCNLTWVLYLMLMNRTF
amyloid nucleation score: inactive

LFVIKGENNSEEYTNVNFWR
amyloid nucleation score: 0.389 ± 0.23

DGLKNYRWYRFNTLDDGLAG
amyloid nucleation score: inactive

AWRSMSGVTYPQGTSLPFSK
amyloid nucleation score: inactive

LSELSRSARVLMFQLFMSRC
amyloid nucleation score: 1.87 ± 0.081

PSFGDEDTYNRDLALTLMDC
amyloid nucleation score: inactive

NLRSISF
amyloid nucleation score: inactive

YWDCGLCVNEMGRFICCLGG
amyloid nucleation score: inactive

WSISSECGERVFRVRTCH
amyloid nucleation score: -0.548 ± 1

TSVGYNRIMFQERNIHPELN
amyloid nucleation score: inactive

DRYLCVVKCSVVTGIDQMSM
amyloid nucleation score: inactive

HVNSNPHVLASEVK
amyloid nucleation score: inactive

GNWCSG
amyloid nucleation score: inactive

DVFHSCLAQFILYTP
amyloid nucleation score: inactive

LVMACCNIMKSATMIILYTM
amyloid nucleation score: 1.26 ± 0.093

GIFVGPSVDSLLKLRARSHY
amyloid nucleation score: inactive

LKHVWLSDRALGSSLTCMAG
amyloid nucleation score: inactive

SGVWTF
amyloid nucleation score: inactive

TSGSEDLLYGRDVVVYRSGC
amyloid nucleation score: inactive

AEVHDDHPMGSDAHIYGTGG
amyloid nucleation score: inactive

LFFYYMNSDLVR
amyloid nucleation score: inactive

VTLMLSITSP
amyloid nucleation score: inactive

QSNCCWVV
amyloid nucleation score: inactive

INFSCLLLKHLFRWVRPYLS
amyloid nucleation score: inactive

KPVFYGPIRCFISVCI
amyloid nucleation score: 1.84 ± 0.09

DSKGIFYFFGLVSLY
amyloid nucleation score: inactive

AGPKALIVMPKICDGDIWME
amyloid nucleation score: inactive

IYGTANSKFSCIIYR
amyloid nucleation score: 2.09 ± 0.091

HSPKPKGWFDGTNSRDGKLY
amyloid nucleation score: inactive

FGNFPSCE
amyloid nucleation score: inactive

LNLVRNWTISAAGKVALKWS
amyloid nucleation score: inactive

VYSTSDAEVIVSVSRRGDFA
amyloid nucleation score: inactive

QSDRVPRILLGKRFKSPLSF
amyloid nucleation score: inactive

QDYGYFNTYQFVRKWSSISL
amyloid nucleation score: inactive

CFGRLLRTAILNLCNLFFAL
amyloid nucleation score: inactive

YSVAHQIPDDDRQGE
amyloid nucleation score: inactive

AVKHHSSTFIFTMGIKLLWL
amyloid nucleation score: inactive

RINSVQGDGVLNLCPRLRVP
amyloid nucleation score: inactive

RVGAVMVEGRFLYHA
amyloid nucleation score: 0.522 ± 0.38

LSLLFALLAFEGVRASLSWG
amyloid nucleation score: inactive

SCHFYTML
amyloid nucleation score: 0.237 ± 0.65

SEYMNLYTVTTHRTPS
amyloid nucleation score: inactive

VSYEWPSQMFRPRVPLALAT
amyloid nucleation score: inactive

RFSIPMLQRCLWLTGPVCPI
amyloid nucleation score: inactive

FPWSSRATRSGEVTV
amyloid nucleation score: inactive

DPPHWVDFSRFR
amyloid nucleation score: inactive

MRAFIRYCIFVCMSAYRNMV
amyloid nucleation score: -0.352 ± 0.73

GESSP
amyloid nucleation score: inactive

ASIPGQRYSEPVKPGTCMYV
amyloid nucleation score: 1.3 ± 0.14

IMWGYDSWFCSANHRSQFRY
amyloid nucleation score: -0.314 ± 0.98

LPICGAD
amyloid nucleation score: inactive

GILSISQNKISVHPLLLLRI
amyloid nucleation score: inactive

TFIFDFAAFMNMVNGFSVLG
amyloid nucleation score: 2.23 ± 0.088

HIVIISYFRLLWSCIAPHGA
amyloid nucleation score: inactive

FLLKEWLK
amyloid nucleation score: -0.626 ± 0.9

RCQATWWNIIFFAIGDCDLL
amyloid nucleation score: inactive

VTQSQRKASFMVCSYSTITR
amyloid nucleation score: inactive

TICRCRWGIRPYLALCIHYS
amyloid nucleation score: inactive

MSHDTFDV
amyloid nucleation score: inactive

SWFGGRDYYKMHIVSG
amyloid nucleation score: inactive

WIKVDTPFEGFVRYAIDSGV
amyloid nucleation score: inactive

MGSGIFCDLFHGVMYCMQVR
amyloid nucleation score: inactive

LPTCYSF
amyloid nucleation score: inactive

SYGLFR
amyloid nucleation score: inactive

NLDLWMQSCFHRVAVYS
amyloid nucleation score: inactive

VEHHDFSRSSSAYTRVL
amyloid nucleation score: inactive

THANEGRCYMVSSVMEVSPL
amyloid nucleation score: inactive

MLGLCPFKSDWLLIYRSMWC
amyloid nucleation score: 1.32 ± 0.15

SNSVHISLYIGSPSFA
amyloid nucleation score: 2.56 ± 0.086

YFMVINR
amyloid nucleation score: 1.98 ± 0.071

SWSRYYCLYCG
amyloid nucleation score: 2.97 ± 0.068

KRYNNIAYFVYLLFSLGVTT
amyloid nucleation score: inactive

YSVNMLFAAS
amyloid nucleation score: inactive

PPRSSLFTFNIFKYNNLYNA
amyloid nucleation score: 2.72 ± 0.066

VGLRNLGFVMFSRWLTPLLI
amyloid nucleation score: inactive

YKANFMGFSIYKRVGTRVWQ
amyloid nucleation score: 0.15 ± 0.75

GDSFCFQLGVMCINHVRWY
amyloid nucleation score: 1.78 ± 0.09

WDAPMSNVDRL
amyloid nucleation score: inactive

VMYNYARFRWFLCTDQ
amyloid nucleation score: 1 ± 0.2

MTYVGGSVQYGRSLRHRIDR
amyloid nucleation score: inactive

PCHHFFFA
amyloid nucleation score: inactive

WHKKLGYTSFNRKLGFMASG
amyloid nucleation score: 0.101 ± 0.45

YTIMRNYGFLGARISRGSGS
amyloid nucleation score: inactive

RCFYKRYNYLS
amyloid nucleation score: inactive

VWVFYWDKLRKF
amyloid nucleation score: inactive

RRRFCVKGSPGVRFVEWTLR
amyloid nucleation score: -0.696 ± 1.1

CQSSVLLCSYCGY
amyloid nucleation score: 2.65 ± 0.074

SAQPESY
amyloid nucleation score: inactive

DLNMGYKFLISKYSWPVYPM
amyloid nucleation score: inactive

VNLSFNCWFDVVCVSSRF
amyloid nucleation score: 1.9 ± 0.07

HEIPETQFCSIWFDSVCWCL
amyloid nucleation score: inactive

FNVTGFSIIGKFIHDWFFLL
amyloid nucleation score: inactive
